Legend:
[1] = biological target: T1, extracellular region of human PD-1 (human, UniProt Q15116 25-170); experiment: method not given
T1 construct: also called extracellular domain of human PD-1

[2] = biological target: T1, extracellular region of human PD-1; experiment: method not given; lower end of the printed range 50-70 nM

T1 sequence (Q15116 25-170 limits assumed): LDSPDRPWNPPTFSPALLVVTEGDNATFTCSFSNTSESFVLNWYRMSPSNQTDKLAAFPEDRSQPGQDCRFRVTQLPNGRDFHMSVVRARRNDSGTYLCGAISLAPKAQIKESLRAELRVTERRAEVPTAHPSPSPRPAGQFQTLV

binding half-life [1]: 15 to 20 s
Kd [2]: 0.05 to 0.07 µM
B1: PD-1 agonist VHH (camelid PD-1 agonist VHH) (VHH)
VHH: EVQLVESGGALVQPGGSLRLSCAASGFTFSSYAMTWVRQAPGKGPEWVSAIASDGASTSYLDSVKGRFTVSRDNAKNTLYLQMNSLKPEDTAVYYCARGGYLTYDRYGQGTQVTVSS
notes: also called PD-1 VHH domain; PD-1 VHH antibody
